The results in this text go back to US20210122814A1.

Test [1] has as its target Matrix-associated proTGFβ1 (hLTBP1-proTGFβ1 and hLTBP3-proTGFβ1). The experiment in a line: BLI (Octet).
The target of test [2] is Cell-associated proTGFβ1 (hGARP-proTGFβ1 and hLRRC33-proTGFβ1). Description: BLI (Octet).
Test [3] shares this target. Description: BLI (Octet); Cell AVRG over ECM AVRG.
The target is the same in test [4]. Description: MSD-SET, hIgG4; Cell AVRG over ECM AVRG.
Test [5] deals with Matrix-associated proTGFβ1 (hLTBP1-proTGFβ1 and hLTBP3-proTGFβ1). The experiment in a line: MSD-SET, hIgG4.
For test [6], the target named is Cell-associated proTGFβ1 (hGARP-proTGFβ1 and hLRRC33-proTGFβ1). The experiment in a line: MSD-SET, hIgG4.

B1: Ab21 (antibody, V domains shown)
VH: EVQLVESGGGLVQPGGSLRLSCAASGFTFSSFSMDWVRQAPGKGLEWVSYISPDASTIYYADSVKGRFTISRDNAKNSLYLQMNSLRAEDTAVYYCARGVLDYGDMLDPWGQGTLVTVSS
VL: DIQMTQSPSSLSASVGDRVTITCQASQDITNYLNWYQQKPGKAPKLLIYDASNLETGVPSRFSGSGSGTDFTFTISSLQPEDIATYYCQQADNHPPWTFGGGTKVEIK
B1 had an ECM AVRG (average KD) in test [1] of 246 pM. Further, in test [2], the Cell AVRG (average KD) is 644 pM. Also, the G/D (fold bias) in test [3] came to 2.61 fold.

B2: Ab23 (antibody, V domains shown)
VH: EVQLVESGGGLVQPGGSLRLSCAASGFTFSSFSMNWVRQAPGKGLEWVSYISPSADTIYYADSVKGRFTISRDNAKNTLYLQMNSLRAEDTAVYYCARGVLDYGDMLDPWGQGTLVTVSS
VL: DIQMTQSPSSLSASVGDRVTITCQASQDITNYLNWYQQKPGKAPKLLIYDASNLETGVPSRFSGSGSGTDFTFTISSLQPEDIATYYCQQADNHPPWTFGGGTKVEIK
As for B2, the ECM AVRG (average KD) in test [1] stood at 442 pM. Besides, the Cell AVRG (average KD) in test [2] stood at 898 pM. Besides, the G/D (fold bias) in test [3] is 2.03 fold.

B3: Ab24 (antibody, V domains shown)
VH: EVQLVESGGGLVQPGRSLRLSCAASGFTFSSFAMYWVRQAPGKGLEWVSYISPDASTIYYADSVKGRFTISRDNAKNSLYLQMNSLRAEDTAVYYCARGVLDYGDMLDPWGQGTLVTVSS
VL: DIQMTQSPSSLSASVGDRVTITCQASQDITNYLNWYQQKPGKAPKLLIYDASNLETGVPSRFSGSGSGTDFTFTISSLQPEDIATYYCQQADNHPPWTFGGGTKVEIK
Regarding B3, the G/D (fold bias) in test [4] turned out to be 4.35 fold; in test [3] it was 2.42 fold. The values for the ECM AVRG (average KD) in test [5] and in test [1] were 23 pM and 222 pM, respectively. Further, the Cell AVRG (average KD) was found to be 100 pM in test [6] and 538 pM in test [2].

B4: Ab33 (antibody, V domains shown)
VH: EVQLVESGGGLVQPGGSLRLSCAASGFTFSSFSMNWVRQAPGKGLEWVSYISPSADTIYYADSVKGRFTISRDNAKNTLYLQMNSLRAEDTAVYYCAHGVLDYGDMLDPWGQGTLVTVSS
VL: DIQMTQSPSSLSASVGDRVTITCQASQDITNYLNWYQQKPGKAPKLLIYDASNLETGVPSRFSGSGSGTDFTFTISSLQPEDIATYYCQQADNHPPWTFGGGTKVEIK
Turning to B4, the G/D (fold bias) in test [4] is 3 fold; in test [3] it was 2.08 fold. Further, the ECM AVRG (average KD) in test [5] worked out at 9 pM; in test [1], 145 pM. In addition, the Cell AVRG (average KD) in test [6] was 27 pM; in test [2], 302 pM.

B5: Ab22 (antibody, V domains shown)
VH: EVQLVESGGGLVQPGGSLRLSCAASGFTFGSFSMNWVRQAPGKGLEWVSYIHSDASTIYYADSVKGRFTISRDNAKNSLYLQMNSLRAEDTAVYYCARGVLDYGDMLDPWGQGTLVTVSS
VL: DIQMTQSPSSLSASVGDRVTITCQASQDITNYLNWYQQKPGKAPKLLIYDASNLETGVPSRFSGSGSGTDFTFTISSLQPEDIATYYCQQADNHPPWTFGGGTKVEIK
In the case of B5, the G/D (fold bias) was found to be 2.71 fold in test [4] and 2.15 fold in test [3]. Besides, the figures for the ECM AVRG (average KD) in test [5] and in test [1] were 42 pM and 324 pM, respectively. For the same molecule, the Cell AVRG (average KD) in test [6] came to 114 pM; in test [2], 694 pM.

B6: Ab25 (antibody, V domains shown)
VH: EVQLVESGGGLVQPGGSLRLSCAASGFTFGSFSMDWVRQAPGKGLEWVSYISPDASTIYYADSVKGRFTISRDNAKNSLYLQMNSLRAEDTAVYYCARGVLDYGDMLDPWGQGTLVTVSS
VL: DIQMTQSPSSLSASVGDRVTITCQASQDITNYLNWYQQKPGKAPKLLIYDASNLETGVPSRFSGSGSGTDFTFTISSLQPEDIATYYCQQADNHPPWTFGGGTKVEIK
For B6, the ECM AVRG (average KD) in test [1] came out at 184 pM. This molecule also came in with a Cell AVRG (average KD) in test [2] of 448 pM. Besides, the G/D (fold bias) in test [3] amounted to 2.43 fold.

B7: Ab4 (antibody, IgG4, V domains shown)
VH: EVQLVESGGGLVQPGGSLRLSCAASGFTFSSYSMNWVRQAPGKGLEWVSYISSSSSTIYYADSVKGRFTISRDNAKNSLYLQMNSLRAEDTAVYYCARGVLDYGDMLDPWGQGTLVTVSS
VL: DIQMTQSPSSLSASVGDRVTITCQASQDITNYLNWYQQKPGKAPKLLIYDASNLETGVPSRFSGSGSGTDFTFTISSLQPEDIATYYCQQADNHPPWTFGGGTKVEIK
Regarding B7, the G/D (fold bias) in test [4] was found to be 0.42 fold. Moreover, the ECM AVRG (average KD) in test [5] is 5050 pM. This molecule came in with a Cell AVRG (average KD) in test [6] of 2300 pM.

B8: Ab28 (antibody, V domains shown)
VH: EVQLVESGGGLVQPGGSLRLSCAASGFTFSSFSMDWVRQAPGKGLEWVSYISPDASTIYYADSVKGRFTISRDNAKNSLYLQMNSLRAEDTAVYYCVRGVLDYGDMLDPWGQGTLVTVSS
VL: DIQMTQSPSSLSASVGDRVTITCQASQDITNYLNWYQQKPGKAPKLLIYDASNLETGVPSRFSGSGSGTDFTFTISSLQPEDIATYYCQQADNHPPWTFGGGTKVEIK
The molecule B8 displayed an ECM AVRG (average KD) in test [1] of 328 pM. This molecule yielded a Cell AVRG (average KD) in test [2] of 603 pM. Besides, the G/D (fold bias) in test [3] worked out at 1.84 fold.

B9: Ab27 (antibody, V domains shown)
VH: EVQLVESGGGLVQPGGSLRLSCAASGFTFSFYAMNWVRQAPGKGLEWVSYISPDASTIYYADSVKGRFTISRDNAKNSLYLQMNSLRAEDTAVYYCARGVLDYGDMLDPWGQGTLVTVSS
VL: DIQMTQSPSSLSASVGDRVTITCQASQDITNYLNWYQQKPGKAPKLLIYDASNLETGVPSRFSGSGSGTDFTFTISSLQPEDIATYYCQQADNHPPWTFGGGTKVEIK
In test [1], B9 yielded an ECM AVRG (average KD) of 208 pM. The molecule also came in with a Cell AVRG (average KD) in test [2] of 362 pM. The G/D (fold bias) in test [3] amounted to 1.74 fold.

B10: Ab29 (antibody, V domains shown)
VH: EVQLVESGGGLVQPGRSLRLSCAASGFTFSSFAMNWVRQAPGKGLEWVSYISPDASTIYYAGSVKGRFTISRDNAKNSLYLQMNSLRAEDTAVYYCVRAVLDYGDMLDPWGQGTLVTVSS
VL: DIQMTQSPSSLSASVGDRVTITCQASQDITNYLNWYQQKPGKAPKLLIYDASNLETGVPSRFSGSGSGTDFTFTISSLQPEDIATYYCQQADNHPPWTFGGGTKVEIK
Regarding B10, the G/D (fold bias) was found to be 2 fold in test [4] and 1.97 fold in test [3]. Moreover, the figures for the ECM AVRG (average KD) in test [5] and in test [1] were 12 pM and 155 pM, respectively. The values for the Cell AVRG (average KD) in test [6] and in test [2] were 24 pM and 304 pM, respectively.

B11: Ab32 (antibody, V domains shown)
VH: EVQLVESGGGLVQPGGSLRLSCAASGFTFSSFSMNWVRQAPGKGLEWVSYISPSADTIYYADSVKGRFTISRDNAKNTLYLQMNSLRAEDTAVYYCARGVWDMGDMLDPWGQGTLVTVSS
VL: DIQMTQSPSSLSASVGDRVTITCQASQDITNYLNWYQQKPGKAPKLLIYDASNLETGVPSRFSGSGSGTDFTFTISSLQPEDIATYYCQQADNHPPWTFGGGTKVEIK
Turning to B11, the values for the G/D (fold bias) in test [4] and in test [3] were 1.6 fold and 2.47 fold, respectively. The ECM AVRG (average KD) in test [5] was 32 pM; in test [1], 242 pM. Further, the values for the Cell AVRG (average KD) in test [6] and in test [2] were 51 pM and 597 pM, respectively.

B12: Ab26 (antibody, V domains shown)
VH: EVQLVESGGGLVQPGGSLRLSCAASGFTFSSFSMDWVRQAPGKGLEWVSYISPDASTIYYADSVKGRFTISRDNAKNTLYLQMNSLRAEDTAVYYCARGVLDYGDMLDPWGQGTLVTVSS
VL: DIQMTQSPSSLSASVGDRVTITCQASQDITNYLNWYQQKPGKAPKLLIYDASNLETGVPSRFSGSGSGTDFTFTISSLQPEDIATYYCQQADNHPPWTFGGGTKVEIK
For the molecule B12, the G/D (fold bias) turned out to be 2.77 fold in test [4] and 2.5 fold in test [3]. The ECM AVRG (average KD) in test [5] amounted to 26 pM; in test [1], 197 pM. The Cell AVRG (average KD) in test [6] is 72 pM; in test [2], 492 pM.

B13: Ab30 (antibody, V domains shown)
VH: EVQLVESGGGLVQPGGSLRLSCAASGFTFSSFSMDWVRQAPGKGLEWVSYISPDASTIYYADSVKGRFTISRDNAKNSLYLQMNSLRAEDTAVYYCARGTLDYGDMLDPWGQGTLVTVSS
VL: DIQMTQSPSSLSASVGDRVTITCQASQDITNYLNWYQQKPGKAPKLLIYDASNLETGVPSRFSGSGSGTDFTFTISSLQPEDIATYYCQQADNHPPWTFGGGTKVEIK
As for B13, the G/D (fold bias) in test [4] came out at 2.8 fold; in test [3], 2.31 fold. Moreover, the ECM AVRG (average KD) stood at 29 pM in test [5] and 296 pM in test [1]. The Cell AVRG (average KD) came to 81 pM in test [6] and 684 pM in test [2].

B14: Ab31 (antibody, V domains shown)
VH: EVQLVESGGGLVQPGGSLRLSCAASGFTFSSFSMDWVRQAPGKGLEWVSYISPDASTIYYADSVKGRFTISRDNAKNTLYLQMNSLRAEDTAVYYCARAVLDYGDMLDPWGQGTLVTVSS
VL: DIQMTQSPSSLSASVGDRVTITCQASQDITNYLNWYQQKPGKAPKLLIYDASNLETGVPSRFSGSGSGTDFTFTISSLQPEDIATYYCQQADNHPPWTFGGGTKVEIK
Take B14: the G/D (fold bias) in test [4] was 3.41 fold; in test [3], 2.38 fold. Moreover, the figures for the ECM AVRG (average KD) in test [5] and in test [1] were 17 pM and 208 pM, respectively. The Cell AVRG (average KD) in test [6] is 58 pM; in test [2], 496 pM.
